Data published in the supplement of paper PMC10567573.

B1: MYBL2 (parent)
chain: VKKSCWTEEEDRIICEAHKVLGNR
B2: SETD8 (parent)
chain: GKQAPRKKAQGKTQQNRKLTDFYP

Variants of: B1
Test: protein stability index of a GFP-peptide fusion (GPS, HEK-293T) (PSI 1-6); higher = more stable
Settings: c terminus: a fixed tail appended
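Note: lentivirally expressed fusions sorted by FACS into six bins by GFP to DsRed ratio, PSI derived from sequencing read proportions per bin multiplied by bin number.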

Protein stability index of substitutions, site by site:
R24: D 4.19 | E 4.05 | C 3.3 | N 3.59 | M 2.86 | P 3.7 | V 3.47 | F 2.4 | T 3.95 | L 3.32 | Q 4.15 | G 4.11 | K 4.21 | S 3.63 | I 2.69 | A 3.42 | W 1.86 | H 3.49 | Y 3.06
L21: T 3.44 | P 3.8 | S 3.3 | V 3.35 | Q 3.64 | Y 3.71 | W 3.33 | N 3.83
N23: A 3.08 | F 2.21 | Y 3.01 | P 3.77 | M 2.1 | Q 2.95 | K 2.59 | V 2.93 | C 3.23 | R 3.64 | T 3.41 | L 2.35 | G 2.57 | S 2.9 | W 2.59 | D 3.64 | H 3.71 | E 3.96 | I 2.63
G22: T 2.83 | P 3.54 | H 3.11 | S 2.7 | C 3.03 | Y 2.79 | K 3.11 | Q 1.97 | W 2.28 | R 2.99 | V 2.86 | M 2.89 | A 3.17 | N 3.32 | I 2.58 | D 3.38 | E 3.96 | L 2.64 | F 2.54

Variants of: B2
Test: as above
Settings: c terminus: a fixed tail appended

Protein stability index of substitutions, site by site:
P5: K 3.35 | I 3.36 | Q 3.75 | G 4.29 | A 2.52 | F 2.95 | E 3.58 | W 2.57 | Y 2.2 | S 4.65 | T 1.74 | C 1.99 | V 3.18 | L 2.74 | H 2.85 | M 3.08
L19: A 4.54 | Q 3.84 | R 4.33 | D 5.33 | F 3.27 | G 3.91 | H 3.77 | K 4 | S 4.39 | N 4.73 | W 2.97 | E 4.62 | Y 3.32
A9: M 2.54 | D 3.57 | I 3.08 | N 4.09 | H 2.6 | P 3.43 | Q 2.89 | C 2.77 | Y 3.35
T13: E 3.83 | G 3.35 | N 2.87 | I 3.28 | D 3.09 | F 2.37 | V 3.39 | M 2.16 | A 3.48 | R 3.82 | Q 3.93 | S 2.04
R6: F 2.43 | A 3.42 | C 2.82 | T 3.21 | P 4.13 | S 3.46 | Y 2.65 | I 2.76 | N 4.12 | D 3.67 | E 3.29 | G 3.55 | V 2.68 | K 3.44 | W 2.48 | H 3.07
T20: K 3.54 | P 4.41 | C 2.54 | E 4.22 | N 3.61 | I 3.29 | Q 4.11 | M 4.3 | H 3.94 | D 4.5 | F 3.06
G11: M 3.29 | E 3.42 | H 3.56 | P 3.46 | A 4.17 | D 2.94 | I 3.73 | R 2.66 | N 3.6 | Y 3.21 | S 3.55 | L 3.27 | T 2.84 | K 2.91
Q15: C 2.15 | N 3.07 | H 3.76 | L 2.76 | S 3.26 | D 3.71
Q10: D 3.17 | R 3.16 | M 2.55 | P 2.65 | S 4.86 | W 2.08 | A 3.52 | E 2.78 | V 3.01 | F 3.28 | Y 3.22 | I 2.86
K7: M 3.72 | D 3.07 | E 2.82 | Q 3.96 | T 2.78 | N 2.21 | W 2.95 | S 2.48 | F 2.42 | Y 3.06
K2: N 3.11 | C 2.92 | T 2.46 | L 4.09 | R 3.07 | A 3.09 | Q 3.4 | V 3.99 | Y 2.95 | F 3.34 | M 3.05 | G 2.67 | W 3.69
A4: E 3.04 | N 3.23 | T 2.71 | W 3.3 | Q 2.77 | P 2.63 | V 1.83 | K 3.73 | C 3.34 | R 3.15 | F 3.05 | G 3.46 | I 3.09 | S 4.29
K8: R 2.75 | P 3.76 | S 3.55 | W 3.3 | C 3.48 | L 1.99 | Y 3.22 | F 1.63 | I 3.04 | G 3.85 | Q 4.11 | M 3.47 | H 2.99 | A 3.52 | N 2.77 | T 2.77
K12: I 2.85 | A 2.76 | W 3.08 | N 3.07 | Y 3.42 | D 2.51 | L 3.21 | C 2.19 | R 2.99 | G 3.37 | T 3.32 | P 2.51 | F 4.09 | E 3.66
D21: E 1.79 | K 3.91 | C 4.41 | A 3.03 | I 3.13 | L 3.53 | H 3.57 | F 2.59
R17: C 2.96 | D 3.8 | L 2.32 | G 3.91 | K 2.59 | I 3.68 | E 3.13 | H 2.88 | P 3.06 | T 2.61 | N 3.34 | F 2.88
Q14: F 1.92 | S 1.89 | Y 3.4 | V 3.07 | M 3.64 | E 3.41 | D 3.06 | I 3.11 | P 4.36 | H 1.57 | W 3.37 | C 2.37 | G 2.52 | T 3.4 | R 1.85 | A 2.81
G1: H 3 | V 3.12 | E 3.79 | A 3.04 | I 2.74 | T 3.2 | L 2.66 | R 2.94 | Q 3.8 | S 3.17 | F 3.39 | M 2.6 | Y 3.1 | P 4.24 | D 2.68 | K 3.75 | C 2.98 | N 2.88
N16: E 3.65 | F 2.68 | K 2.91 | T 2.53 | M 3.37 | A 3.02 | P 2.45 | I 3.13 | S 4.04 | V 3.57 | Y 1.96
K18: Y 2.76 | A 3.15 | Q 3.45 | F 3.85 | E 3.2 | N 4.19 | D 4.87 | L 2.56 | M 2.06 | T 3.05 | H 2.69 | V 3.75 | C 2.89 | P 2.96 | S 3.51 | I 4.29
Q3: G 3.38 | F 2.67 | H 3.8 | R 4.32 | T 2.93 | A 2.63 | P 2.01 | Y 3.58 | K 3.85 | V 2.28 | I 3.33 | D 3.41
